Assay [1] addresses human Siglec-7 expressed on human cells (primary monocytes, dendritic cells, macrophages, NK cells, microglia, U937 cells, human cells of humanized mice) (human) (UniProt Q9Y286). As to the kind of experiment: cell-based or functional assay.
The target is the same in assay [2]. Kind of assay: FACS, human primary monocytes; isotype control (background). On the technique in general: A flow cytometer gives signals particle by particle.
Assay [3] has the same target. Kind of assay: FACS, human primary macrophages; isotype control (background).
Assay [4] shares this target. As to the kind of experiment: FACS, human primary dendritic cells; isotype control (background).
Assay [5] deals with T1, human Siglec-7 expressed on human cells (primary monocytes, dendritic cells, macrophages, NK cells, … (human, UniProt Q9Y286 19-467)). Kind of assay: cell-based or functional assay.
T1 sequence (Q9Y286 19-467): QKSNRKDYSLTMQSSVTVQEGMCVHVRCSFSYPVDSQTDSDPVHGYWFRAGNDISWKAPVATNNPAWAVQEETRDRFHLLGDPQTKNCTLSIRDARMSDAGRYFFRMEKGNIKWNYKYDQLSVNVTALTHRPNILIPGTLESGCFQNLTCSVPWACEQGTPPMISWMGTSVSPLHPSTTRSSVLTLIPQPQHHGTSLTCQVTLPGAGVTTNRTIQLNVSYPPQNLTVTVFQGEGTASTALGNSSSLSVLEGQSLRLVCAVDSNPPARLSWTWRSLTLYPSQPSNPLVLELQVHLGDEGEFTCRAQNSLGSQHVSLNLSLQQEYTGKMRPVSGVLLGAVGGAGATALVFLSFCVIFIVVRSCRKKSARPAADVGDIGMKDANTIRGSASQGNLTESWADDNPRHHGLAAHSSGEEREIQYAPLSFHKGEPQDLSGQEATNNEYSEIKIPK
For assay [6], the target named is T1, human Siglec-7 expressed on human cells …. As to the kind of experiment: cell-based or functional assay. This is another data set of the same source.
The target is the same in assay [7]. As to the kind of experiment: FACS, human primary monocytes, 10 ug/ml mAb. On the procedure: (§1) Initial characterization of Siglec-7 antibodies involved determining their ability to bind Siglec-7 expressed on human primary monocytes, human primary macrophages, human primary dendritic cells, human primary neutrophils, and human primary natural killer (NK) cells. Cells were harvested, plated at 10⁶/ml in a 96 well plate, and incubated in 100 ul PBS containing 2% FBS, 2 mM EDTA and 10 μg/ml Mab and Fc blocking reagent for 1 hour in ice. Cells were washed twice and incubated in 100 ul PBS containing 2% FBS, 2 mM EDTA and 5 ug/ml PE-conjugated secondary antibody for 30 minutes on ice. Cells were washed twice in cold PBS and analyze by flow cytometry on a BD FACS Canto. Data analysis and calculation of MFI values was performed with FlowJo (TreeStar) software version 10.0.7.
(§2) Percent positive binding and mean fluorescent intensity (MFI) values for cell types bound by Siglec-7 antibodies are listed in Table 4A. Binding is compared to an isotype control. The antibodies bind to human primary monocytes, human primary dendritic cells, and human primary macrophages. In Table 4A, “Buffer” refers to cells that were treated only with the PBS buffer described supra; “Secondary Ab” refers to cells that were treated only with the PE-conjugated secondary antibody; “mIgG1,” “mIgG2a,” and “mIgG2b” refer to isotype control antibodies; and “RDS7” refers to commerically available anti-Siglec-7 antibody Mab1138 (R&D Systems; Cat. No. MAB 1138).

Assay [8] has the same target. Kind of assay: FACS, human primary macrophages, 10 ug/ml mAb. On the procedure: as §1, §2
Assay [9] shares this target. Kind of assay: FACS, human primary dendritic cells, 10 ug/ml mAb. On the procedure:
as §1, §2

The target of assay [10] is T2, Siglec-7-Fc (plate immobilized) (human, UniProt Q9Y286 19-357, limits assumed).
T2 construct: also called Siglec-7-Fc protein; immobilized Siglec-7; not shown: Fc part
T2 sequence (Q9Y286 19-357 limits assumed): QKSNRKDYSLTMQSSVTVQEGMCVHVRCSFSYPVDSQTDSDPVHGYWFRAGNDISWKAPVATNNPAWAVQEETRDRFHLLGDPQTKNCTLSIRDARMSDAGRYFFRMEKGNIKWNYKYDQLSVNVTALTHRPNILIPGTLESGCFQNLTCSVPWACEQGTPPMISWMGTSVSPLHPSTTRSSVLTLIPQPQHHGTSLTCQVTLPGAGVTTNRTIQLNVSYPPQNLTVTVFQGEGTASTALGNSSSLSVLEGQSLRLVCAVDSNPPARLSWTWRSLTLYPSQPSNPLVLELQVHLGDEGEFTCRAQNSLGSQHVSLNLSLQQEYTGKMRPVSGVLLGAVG
Kind of assay: RBC solid adhesion assay, plate-coated Siglec-7-Fc, antibody 0.5 or 1.0 ug/ml; % of RBC binding without antibody. On the procedure:
To determine which antibodies compete with ligand binding to Siglec-7, a red blood cell (RBC) solid adhesion assay was carried out in accordance with standard protocols (Kelm et al., Current Biology, 1994). Red blood cells are highly decorated with glycoproteins containing sialic acids: therefore, the ability of an antibody to block RBC binding to immobilized Siglec-7 can be used to determine ligand interference. Briefly, 5 μg/ml Siglec-7-Fc was coated overnight at RT in 96 well Immunolon plates, then washed with PBS, blocked for one hour with binding buffer (PBS containing %0.25 BSA 1 mM CaCl₂), Siglec-7 antibodies (0.5 μg/ml or 1.0 μg/ml) were bound for one hour at RT with gentle rocking. After removal of unbound antibody, red blood cells were added to each well at a concentration of 3.0×10⁶ cells per ml and incubated at RT for one hour. Unbound RBCs were then carefully washed off 3× with PBS, and water was added to each well for hypotonic lysis of bound RBCs. The plate was transferred to −80° C. for 10 minutes, followed by 37° C. for 15 minutes. Bound RBCs were detected by peroxidase activity, followed by 2N sulfuric acid to stop the reaction. Signal was detected at […]. Data was calculated as a percent of RBC binding to plate bound Siglec-7-Fc in the absence of antibody.

Assay [11] has as its target T3, Histidine-tagged human Siglec-7 (NovoProtein) (human, UniProt Q9Y286 19-357, limits assumed).
T3 construct: Bought protein; also called purified Siglec-7-his tagged protein; not shown: histidine tag
As to the kind of experiment: SPR (BiaCore T200, 25 C), antibody captured on anti-mouse IgG, Siglec-7-His 100 nM, single-concentration kinetics. As to the method:
SPR data was collected at a rate of 10 Hz at 25′ C on a BiaCore T200 instrument. Data analysis was performed using BiaCore T200 Evaluation Software, version 2.0. HBS-EP+ (100 mM HEPES, 1.5 M NaCl, 30 mM EDTA, 0.5% v/v Surfactant P20, pH 7.4) was used as running buffer and for preparing reagents.
Mouse-derived antibodies (25 nM) against Siglec-7 were captured (60 s contact time, 30 μL/min flow rate, 0 s stabilization time) on a CM5 sensor chip (GE Healthcare) immobilized with anti-mouse IgG. Histidine-tagged human Siglec-7 (NovoProtein) was then flowed over the captured anti-Siglec-7 surface (120 s contact time, 30 μL/min flow rate, 300 s dissociation time). Concentration of antigen ranged from 5 nM to 100 nM, depending on information obtained from an initial screen. Duplicate single-concentration trials were performed and bracketed by a blank (0 nM antigen) sample. The chip surface was regenerated in between cycles using 10 mM glycine-HCl, pH1.7 (60 s contact time, 30 μL/min flow rate, 60 s stabilization time). The resulting SPR signal was obtained as the difference in response from measurements performed on a blank flow cell.
Affinity constants (KD) were calculated from the ratio kd/kₐ. For one antibody (clone 1E8), we validated the single-concentration analysis with a multiple-concentration approach (five concentrations of antigen used, plus one blank).

The values below come from patent US20200277374A1 (Alector, published 2020).

T3 sequence (Q9Y286 19-357 limits assumed): as above
human Siglec-7 expressed on human cells (primary monocytes, dendritic cells, macrophages, NK cells, microglia, U937 cells, human cells of humanized mice) (human), sequence (Q9Y286 19-467): as the sequence (Q9Y286 19-467) above

In assay [1], mIgG2a isotype control antibody came in with a Percent Siglec-7 Surface Expression, DCs of 100%; a Percent Siglec-7 Surface Expression, Macrophages of 100%; a Percent Siglec-7 Surface Expression, Microglia of 84.2%; a Percent Siglec-7 Surface Expression, Monocytes of 99.4%. In assay [1], this molecule returned a Percent Siglec-7 Surface Expression, NK cells of 101% and a Percent Siglec-7 Surface Expression, U937 cells of 99.8%. In [2], this molecule came in with a % Positive of 14% and an MFI of 141. Besides, in assay [3], the % Positive turned out to be 35.8% and the MFI was found to be 648. In assay [4], this molecule returned a % Positive of 4.5% and an MFI of 134.

B1: anti-Siglec-7 antibody 4D7 (antibody, V domains shown)
VH: QVQLQQSGAELVKPGASVKLSCKTSGYTFTNYWINWVKQRPGQGLEWIGNIYSGSSRTNYNEKFKSKATLTVDTSSSTAYMQLSSLTSDDSAVYYCAREGLRAMDYWGQGTSVTVSS
VL: NZMTQFQKFMSTSVGDRVSLTCKASQKVGTNVAGFQQKPGHSPKAGIYSASTRHRGVQDRFTARGLGSDFILPITTZQLEDLAEYZCHQGNSVQYTFGGGTKLEIK
notes: Variable domains assembled from FR and CDR entries
As a reminder, the Kd is the constant that tells how readily two partners part at equilibrium. A lower Kd goes with higher affinity. For B1, in assay [5], the “Percent Siglec-7 Surface Expression, DCs” value amounted to 73.3%; the “Percent Siglec-7 Surface Expression, Monocytes” value worked out at 33.9%; the “Percent Siglec-7 Surface Expression, U937 cells” value was found to be 84.7%. For the same molecule, in assay [6], the “Percent Siglec-7 Surface Expression, Macrophages” value stood at 24.1%; the “Percent Siglec-7 Surface Expression, Microglia” value stood at 44.3%; the “Percent Siglec-7 Surface Expression, NK cells” value stood at 87.6%. Besides, in assay [7], the “% Positive” value turned out to be 90.5% and the MFI stood at 262. Also, in [8], the “% Positive” value was 99.4% and the MFI turned out to be 4260. Also, in assay [9], the “% Positive” value turned out to be 26.1% and the MFI is 250. In addition, in assay [10], the “Percent RBC Binding to Siglec-7” value was found to be 96.5%. Moreover, binding in [11] was put at a Kd of 2.9 nM.

B2: anti-Siglec-7 antibody 7E11 (antibody, V domains shown)
VH: QVQLKQSGPVLVAPSQSLSITCTVSGFSLSNYGVHWVRQFPGKGLEWLGVIWAGGITNYNSVLMSRLSISKDNSKSQVFLKMNSLQTDDTAMYYCAKQGGTSFSYWGQGTLVTVSA
VL: DIQMTQSPASQSASLGESVTITCLASQTIGTWLAWYQQKPGKSPQLLIYAATSLADGVPSRFSGSGSGTKFSFKISSLQAEDFVSYYCQQLYSTPYTFGGGTKLEIK
notes: as for B1
As to B2, in assay [5], the “Percent Siglec-7 Surface Expression, DCs” value amounted to 19.3%; the “Percent Siglec-7 Surface Expression, Monocytes” value turned out to be 8.1%; the “Percent Siglec-7 Surface Expression, U937 cells” value worked out at 75.2%. In assay [6], the “Percent Siglec-7 Surface Expression, Macrophages” value came out at 5.7%; the “Percent Siglec-7 Surface Expression, Microglia” value was 11.5%; the “Percent Siglec-7 Surface Expression, NK cells” value worked out at 50.7%. In assay [7], the “% Positive” value amounted to 93.3% and the MFI came out at 278. Moreover, in assay [8], the “% Positive” value was 99.8% and the MFI was determined as 2380. In assay [9], the “% Positive” value came out at 98.4% and the MFI was found to be 845. For the same molecule, the “Percent RBC Binding to Siglec-7” value in [10] was determined as 89.3%. In [11], this molecule gave an equilibrium dissociation constant (Kd) of 9.5 nM.

B3: anti-Siglec-7 antibody 1A12 (antibody, V domains shown)
VH: QVQLQQSGSELRSPGSSVKLSCKDFDSEVFPITYMNWVRQKPGHGFEWIGDILPSIGRTMYGEKFEDKATLDADTVSNTAYLELNSLTSEDSAIYYCARSEGYLLAYWGQGTLVTVSA
VL: DVZMTQTPLSLPVSLGDQASISCRSSQSLVHSTGNTYLHWYLQKPGQSPKLLIYKVSNRFSGVPDRFSGSGAGTDFTLKISRVEAEDLGVYFCSQNTHVPYTFGGGTKLEIK
notes: also called 1Al2
Consider B3, for which, in [5], the “Percent Siglec-7 Surface Expression, DCs” value amounted to 100%; the “Percent Siglec-7 Surface Expression, Monocytes” value came to 39.9%; the “Percent Siglec-7 Surface Expression, U937 cells” value worked out at 87.3%. Moreover, in assay [6], the “Percent Siglec-7 Surface Expression, Macrophages” value was 13.4%; the “Percent Siglec-7 Surface Expression, Microglia” value was determined as 28.6%; the “Percent Siglec-7 Surface Expression, NK cells” value is 136%. Moreover, in [7], the “% Positive” value amounted to 99.3% and the MFI is 505. For the same molecule, in assay [8], the “% Positive” value stood at 99.4% and the MFI is 15800. Further, in assay [9], the “% Positive” value stood at 99.7% and the MFI stood at 6090. Further, in [10], the “Percent RBC Binding to Siglec-7” value stood at 16.5%. The Kd in [11] came to 0.6 nM.
